Patent US20240059799A1 (Pfizer, published 2024)

T1: recombinant human TL1A (human, UniProt O95150 71-251)
T1 construct: The ELISA method says only 'recombinant TL1A' coated on plates; homotrimeric cytokine; also called TNFSF15; recombinant TL1A
T1 chain: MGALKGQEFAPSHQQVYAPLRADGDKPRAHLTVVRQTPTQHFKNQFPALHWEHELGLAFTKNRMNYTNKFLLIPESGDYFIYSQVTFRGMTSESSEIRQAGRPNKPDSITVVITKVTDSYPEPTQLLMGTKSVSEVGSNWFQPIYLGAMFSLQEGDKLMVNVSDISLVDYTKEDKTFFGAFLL


Target: T1, recombinant human TL1A
Test: competition ELISA on coated recombinant TL1A; competitor biotinylated TL1A-0002
Experimental: For this competition ELISA assay procedure, 96-well high binding plates (Corning, product number 3590) were coated with 1 μg/mL recombinant TL1A in 100 μL/well in Phospate Buffered Saline (PBS) overnight at 4° C. Plates were then blocked in PBS+0.02% casein solution and washed with PBS+0.05% Tween-20 following standard ELISA protocol. […] Plates were washed with PBS+0.05% Tween-20 following standard ELISA protocol, and Streptavidin-HRP (Southern Biotech, product number 7100-05) diluted to 1:10,000 in assay buffer was added to plates and incubated for 25-30 minutes at room temperature. Next, the plates were washed with PBS+0.05% Tween-20 following standard ELISA protocol, and then TMB substrate (BioFX Laboratories, catalog number TMBW-0100-01) was added to plates. Reactions were stopped after approximately 5 minutes by adding 0.18 M ortho-phosphoric acid to each well and absorbance was read at 450 nm.

Binder	Bioactivity relative to TL1A-0002 [fold]	IC50 [nM]
TL1A-0249 (antibody, V domains shown, IgG1 effector-minimized/kappa) VH: QVQLVQSGAEVKKPGASVKVSCKASGYDFTYYGISWVRQAPGQGLEWMGWISTYNTGTHYAQKLQGRVTMTTDTSTSTAYMELRSLRSDDTAVYYCARESYYGSGAHRGGMDVWGQGTTVTVSS VL: DIQMTQSPSSLSASVGDRVTITCRASQSVSSYLAWYQQKPGKAPKLLIYDASNRATGVPSRFSGSGSGTDFTLTISSLQPEDFATYYCQQRSNWPWTFGQGTKVEIKR	3.1	15.7
TL1A-0254 (antibody, V domains shown, IgG1 effector-minimized/kappa) VH: QVQLVQSGAEVKKPGASVKVSCKASGYDFTYYGISWVRQAPGQGLEWMGWISTYGGNTHYAPSLQGRVTMTTDTSTSTAYMELRSLRSDDTAVYYCARESYYGSGAFRGGMDVWGQGTTVTVSS VL: DIQMTQSPSSLSASVGDRVTITCRASQSVSSYLAWYQQKPGKAPKLLIYDASNRATGVPSRFSGSGSGTDFTLTISSLQPEDFATYYCQQRSNWPWTFGQGTKVEIKR	9.2	46.3
TL1A-0253 (antibody, V domains shown, IgG1 effector-minimized/kappa) VH: QVQLVQSGAEVKKPGASVKVSCKASGYDFTYYGISWVRQAPGQGLEWMGWISTYNTNTHYAPSLQGRVTMTTDTSTSTAYMELRSLRSDDTAVYYCARESYYGSGAHRGGMDVWGQGTTVTVSS VL: DIQMTQSPSSLSASVGDRVTITCRASQSVSSYLAWYQQKPGKAPKLLIYDASNRATGVPSRFSGSGSGTDFTLTISSLQPEDFATYYCQQRSNWPWTFGQGTKVEIKR	2.7	13.4
TL1A-0259 (antibody, V domains shown, IgG1 effector-minimized/kappa) VH: QVQLVQSGAEVKKPGASVKVSCKASGYDYTYYGISWVRQAPGQGLEWMGWISTYNDNTHYAQKLQGRVTMTTDTSTSTAYMELRSLRSDDTAVYYCARESYYGSGAHRGGMDVWGQGTTVTVSS VL: DIQMTQSPSSLSASVGDRVTITCRASQSVSSYLAWYQQKPGKAPKLLIYDASNRATGVPSRFSGSGSGTDFTLTISSLQPEDFATYYCQQRSNWPWTFGQGTKVEIKR	3.7	18.4
TL1A-0264 (antibody, human IgG1, kappa, V domains shown, human IgG1 effector-function-minimized / human kappa) VH: QVQLVQSGAEVKKPGASVKVSCKASGYDYTYYGISWVRQAPGQGLEWMGWISTYNTVTHYAPSLQGRVTMTTDTSTSTAYMELRSLRSDDTAVYYCARESYYGSGAFRGGMDVWGQGTTVTVSS VL: DIQMTQSPSSLSASVGDRVTITCRASQSVSSYLAWYQQKPGKAPKLLIYDASNRATGVPSRFSGSGSGTDFTLTISSLQPEDFATYYCQQRSNWPWTFGQGTKVEIKR	3.1	15.8
TL1A-0255 (antibody, V domains shown, IgG1 effector-minimized/kappa) VH: QVQLVQSGAEVKKPGASVKVSCKASGYDFTYYGISWVRQAPGQGLEWMGWISTYGGNTHYAPSLQGRVTMTTDTSTSTAYMELRSLRSDDTAVYYCARESYYGSGAHRGGMDVWGQGTTVTVSS VL: DIQMTQSPSSLSASVGDRVTITCRASQSVSSYLAWYQQKPGKAPKLLIYDASNRATGVPSRFSGSGSGTDFTLTISSLQPEDFATYYCQQRSNWPWTFGQGTKVEIKR	7.6	38.4
TL1A-0248 (antibody, V domains shown, IgG1 effector-minimized/kappa) VH: QVQLVQSGAEVKKPGASVKVSCKASGYDFTYYGISWVRQAPGQGLEWMGWISTYNTGTHYAQKLQGRVTMTTDTSTSTAYMELRSLRSDDTAVYYCARESYYGSGAFRGGMDVWGQGTTVTVSS VL: DIQMTQSPSSLSASVGDRVTITCRASQSVSSYLAWYQQKPGKAPKLLIYDASNRATGVPSRFSGSGSGTDFTLTISSLQPEDFATYYCQQRSNWPWTFGQGTKVEIKR	3.2	16
TL1A-0251 (antibody, V domains shown, IgG1 effector-minimized/kappa) VH: QVQLVQSGAEVKKPGASVKVSCKASGYDFTYYGISWVRQAPGQGLEWMGWISTYNTVTHYAPSLQGRVTMTTDTSTSTAYMELRSLRSDDTAVYYCARESYYGSGAHRGGMDVWGQGTTVTVSS VL: DIQMTQSPSSLSASVGDRVTITCRASQSVSSYLAWYQQKPGKAPKLLIYDASNRATGVPSRFSGSGSGTDFTLTISSLQPEDFATYYCQQRSNWPWTFGQGTKVEIKR	3.2	16.2

More lines, now with the values ahead:

Bioactivity relative to TL1A-0002 [fold]	IC50 [nM]	Binder
2.6	13.3	TL1A-0246 (antibody, V domains shown, IgG1 effector-minimized/kappa) VH: QVQLVQSGAEVKKPGASVKVSCKASGYDFTYYGISWVRQAPGQGLEWMGWISTYNTGTHYAPSLQGRVTMTTDTSTSTAYMELRSLRSDDTAVYYCARESYYGSGAFRGGMDVWGQGTTVTVSS VL: DIQMTQSPSSLSASVGDRVTITCRASQSVSSYLAWYQQKPGKAPKLLIYDASNRATGVPSRFSGSGSGTDFTLTISSLQPEDFATYYCQQRSNWPWTFGQGTKVEIKR
2.3	11.6	TL1A-0256 (antibody, human IgG1, kappa, V domains shown, human IgG1 effector-function-minimized / human kappa) VH: QVQLVQSGAEVKKPGASVKVSCKASGYDYTYYGISWVRQAPGQGLEWMGWISTYNDNTHYAPSLQGRVTMTTDTSTSTAYMELRSLRSDDTAVYYCARESYYGSGAFRGGMDVWGQGTTVTVSS VL: DIQMTQSPSSLSASVGDRVTITCRASQSVSSYLAWYQQKPGKAPKLLIYDASNRATGVPSRFSGSGSGTDFTLTISSLQPEDFATYYCQQRSNWPWTFGQGTKVEIKR
1.3	6.8	TL1A-0260 (antibody, human IgG1, kappa, V domains shown, human IgG1 effector-function-minimized / human kappa) VH: QVQLVQSGAEVKKPGASVKVSCKASGYDYTYYGISWVRQAPGQGLEWMGWISTYNTGTHYAPSLQGRVTMTTDTSTSTAYMELRSLRSDDTAVYYCARESYYGSGAFRGGMDVWGQGTTVTVSS VL: DIQMTQSPSSLSASVGDRVTITCRASQSVSSYLAWYQQKPGKAPKLLIYDASNRATGVPSRFSGSGSGTDFTLTISSLQPEDFATYYCQQRSNWPWTFGQGTKVEIKR
2.4	12.2	TL1A-0247 (antibody, V domains shown, IgG1 effector-minimized/kappa) VH: QVQLVQSGAEVKKPGASVKVSCKASGYDFTYYGISWVRQAPGQGLEWMGWISTYNTGTHYAPSLQGRVTMTTDTSTSTAYMELRSLRSDDTAVYYCARESYYGSGAHRGGMDVWGQGTTVTVSS VL: DIQMTQSPSSLSASVGDRVTITCRASQSVSSYLAWYQQKPGKAPKLLIYDASNRATGVPSRFSGSGSGTDFTLTISSLQPEDFATYYCQQRSNWPWTFGQGTKVEIKR
1.2	6.2	TL1A-0263 (antibody, human IgG1, kappa, V domains shown, human IgG1 effector-function-minimized / human kappa) VH: QVQLVQSGAEVKKPGASVKVSCKASGYDYTYYGISWVRQAPGQGLEWMGWISTYNTGTHYAQKLQGRVTMTTDTSTSTAYMELRSLRSDDTAVYYCARESYYGSGAHRGGMDVWGQGTTVTVSS VL: DIQMTQSPSSLSASVGDRVTITCRASQSVSSYLAWYQQKPGKAPKLLIYDASNRATGVPSRFSGSGSGTDFTLTISSLQPEDFATYYCQQRSNWPWTFGQGTKVEIKR
1.7	8.7	TL1A-0265 (antibody, human IgG1, kappa, V domains shown, human IgG1 effector-function-minimized / human kappa) VH: QVQLVQSGAEVKKPGASVKVSCKASGYDYTYYGISWVRQAPGQGLEWMGWISTYNTVTHYAPSLQGRVTMTTDTSTSTAYMELRSLRSDDTAVYYCARESYYGSGAHRGGMDVWGQGTTVTVSS VL: DIQMTQSPSSLSASVGDRVTITCRASQSVSSYLAWYQQKPGKAPKLLIYDASNRATGVPSRFSGSGSGTDFTLTISSLQPEDFATYYCQQRSNWPWTFGQGTKVEIKR
1.4	7.3	TL1A-0262 (antibody, human IgG1, kappa, V domains shown, human IgG1 effector-function-minimized / human kappa) VH: QVQLVQSGAEVKKPGASVKVSCKASGYDYTYYGISWVRQAPGQGLEWMGWISTYNTGTHYAQKLQGRVTMTTDTSTSTAYMELRSLRSDDTAVYYCARESYYGSGAFRGGMDVWGQGTTVTVSS VL: DIQMTQSPSSLSASVGDRVTITCRASQSVSSYLAWYQQKPGKAPKLLIYDASNRATGVPSRFSGSGSGTDFTLTISSLQPEDFATYYCQQRSNWPWTFGQGTKVEIKR
1.1	5.6	TL1A-0261 (antibody, human IgG1, kappa, V domains shown, human IgG1 effector-function-minimized / human kappa) VH: QVQLVQSGAEVKKPGASVKVSCKASGYDYTYYGISWVRQAPGQGLEWMGWISTYNTGTHYAPSLQGRVTMTTDTSTSTAYMELRSLRSDDTAVYYCARESYYGSGAHRGGMDVWGQGTTVTVSS VL: DIQMTQSPSSLSASVGDRVTITCRASQSVSSYLAWYQQKPGKAPKLLIYDASNRATGVPSRFSGSGSGTDFTLTISSLQPEDFATYYCQQRSNWPWTFGQGTKVEIKR
1.9	9.5	TL1A-0257 (antibody, human IgG1, kappa, V domains shown, human IgG1 effector-function-minimized / human kappa) VH: QVQLVQSGAEVKKPGASVKVSCKASGYDYTYYGISWVRQAPGQGLEWMGWISTYNDNTHYAPSLQGRVTMTTDTSTSTAYMELRSLRSDDTAVYYCARESYYGSGAHRGGMDVWGQGTTVTVSS VL: DIQMTQSPSSLSASVGDRVTITCRASQSVSSYLAWYQQKPGKAPKLLIYDASNRATGVPSRFSGSGSGTDFTLTISSLQPEDFATYYCQQRSNWPWTFGQGTKVEIKR
2.2	10.9	TL1A-0258 (antibody, human IgG1, kappa, V domains shown, human IgG1 effector-function-minimized / human kappa) VH: QVQLVQSGAEVKKPGASVKVSCKASGYDYTYYGISWVRQAPGQGLEWMGWISTYNDNTHYAQKLQGRVTMTTDTSTSTAYMELRSLRSDDTAVYYCARESYYGSGAFRGGMDVWGQGTTVTVSS VL: DIQMTQSPSSLSASVGDRVTITCRASQSVSSYLAWYQQKPGKAPKLLIYDASNRATGVPSRFSGSGSGTDFTLTISSLQPEDFATYYCQQRSNWPWTFGQGTKVEIKR
